The labels stand for the following.
B4: HPK1 intact citron homology domain fragment (C428-E821), untagged (domain or fragment, UniProt Q92918-2 428-821, looked up)
chain: CASGPPPNSPRPGPPPSTSSPHLTAHSEPSLWNPPSRELDKPPLLPPKKEKMKRKGCALLVKLFNGCPLRIHSTAAWTHPSTKDQHLLLGAEEGIFILNRNDQEATLEMLFPSRTTWVYSINNVLMSLSGKTPHLYSHSILGLLERKETRAGNPIAHISPHRLLARKNMVSTKIQDTKGCRACCVAEGASSGGPFLCGALETSVVLLQWYQPMNKFLLVRQVLFPLPTPLSVFALLTGPGSELPAVCIGVSPGRPGKSVLFHTVRFGALSCWLGEMSTEHRGPVQVTQVEEDMVMVLMDGSVKLVTPEGSPVRGLRTPEIPMTEAVEAVAMVGGQLQAFWKHGVQVWALGSDQLLQELRDPTLTFRLLGSPRPVVVETRPVDDPTAPSNLYIQE
notes: HPK1 (MAP4K1), fragment left after thrombin cut after R427: two PR domains and the intact CHD, residues C428-E821; the protein is printed as M1-E821 (821 residues); Cut out of a full-length construct (T165E, S171E, R319A, thrombin site inserted after V384); none of these changes lies in the fragment; also called WT-CHD; CHD WT; source: sf9, purified; thrombin digest of full-length HPK1 (Ni, …)

The target of experiment [1] is B4. The experiment in a line: SPR; Biacore T200; KD variants captured (56-73 RU) by a biotinylated anti-KD Fab on NeutrAvidin chip; WT-CHD injected as analyte at various concentrations; 20 mM HEPES, 300 mM NaCl, 0.1% polysorbate 20, 0.5 mM TCEP, pH 7.4; 25 °C. The settings on record: both partners purified.
Experiment [2] deals with T1, HPK1 intact citron homology domain fragment with C-terminal Flag (Flag-CHD) (UniProt Q92918-2 428-821).
T1 construct: HPK1 (MAP4K1), intact CHD fragment from thrombin digestion of the full-length protein; the cut is told as after R427 (C428-E821) for the untagged construct; the protein is printed as M1-E821 (821 residues); the Flag form was made by the same digestion; also called intact CHD with C-flag; recombinant Flag-CHD; source: sf9, purified; thrombin digest of full-length HPK1 with C-terminal Flag (Ni, …)
T1 sequence (looked up): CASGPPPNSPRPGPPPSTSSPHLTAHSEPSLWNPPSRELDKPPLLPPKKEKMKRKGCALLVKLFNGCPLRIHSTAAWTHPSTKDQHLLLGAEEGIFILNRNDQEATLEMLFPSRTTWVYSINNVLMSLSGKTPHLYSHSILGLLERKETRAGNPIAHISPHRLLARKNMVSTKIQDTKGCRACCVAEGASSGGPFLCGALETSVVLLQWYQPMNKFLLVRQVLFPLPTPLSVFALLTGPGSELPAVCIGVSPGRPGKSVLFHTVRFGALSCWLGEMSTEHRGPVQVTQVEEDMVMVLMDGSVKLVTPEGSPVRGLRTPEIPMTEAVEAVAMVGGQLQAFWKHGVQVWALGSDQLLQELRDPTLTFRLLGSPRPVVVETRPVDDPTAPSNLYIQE
The experiment is described as follows: AlphaScreen or HTRF; TR-FRET saturation binding; KD at 5 µM constant, Flag-CHD 1.53 nM-6.25 µM; anti-KD biotinylated Fab with streptavidin-Lumi4Tb and anti-Flag-d2; 20 mM HEPES, 300 mM NaCl, 0.1% polysorbate 20, 0.5 mM TCEP, pH 7.4; apparent KD, called overestimated by the paper. The settings on record: both partners purified.

Experiment [3] addresses full-length HPK1 (M1-E821, T165E, S171E, R319A, Y381E) with N-terminal His tag and C-terminal Flag (UniProt Q92918-2 1-821, T165E | S171E | R319A | Y381E, Isoform 2 (821 aa): C-terminus taken from 8EEC (entity position = residue - 478). N-terminal His and C-terminal Flag left out. A thrombin site after V384 may be present, but its sequence and its prese). The experiment in a line: AlphaScreen or HTRF; TR-FRET competition; 5 nM full-length HPK1 with C-terminal Flag labelled with anti-KD Fab-streptavidin-Lumi4Tb and anti-Flag-d2; untagged CHD titrated (23.84-97.65 µM as printed) against the KD-CHD interaction within the full-length protein; One site - Fit Ki. The conditions noted are these: both partners purified.

In a further experiment the target is T2, HPK1 ΔCHD with LgBit tag (UniProt Q92918 1-483).
T2 construct: HPK1 (MAP4K1) without the CHD, M1-G483; limits as printed for the pMSCV construct of the same name; also called KD + 4PRs; source: HPK1-/- Jurkat cells, transiently transfected, in live cells
T2 sequence (looked up): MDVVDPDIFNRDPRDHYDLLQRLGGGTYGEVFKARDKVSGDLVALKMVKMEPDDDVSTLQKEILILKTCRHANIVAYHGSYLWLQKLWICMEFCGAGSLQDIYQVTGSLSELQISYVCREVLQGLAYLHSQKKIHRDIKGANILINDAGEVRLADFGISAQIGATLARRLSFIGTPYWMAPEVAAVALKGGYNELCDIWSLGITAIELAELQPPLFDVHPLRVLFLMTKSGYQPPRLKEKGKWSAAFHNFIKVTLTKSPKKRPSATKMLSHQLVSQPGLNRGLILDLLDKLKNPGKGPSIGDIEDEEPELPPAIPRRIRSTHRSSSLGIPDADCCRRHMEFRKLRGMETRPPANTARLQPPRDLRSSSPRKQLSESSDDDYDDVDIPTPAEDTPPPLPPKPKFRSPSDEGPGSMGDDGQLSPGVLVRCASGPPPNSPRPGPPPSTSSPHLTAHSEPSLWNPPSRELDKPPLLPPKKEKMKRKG
The experiment is described as follows: split reporter (BiFC, NanoBiT); NanoBit in live HPK1-/- Jurkat cells transiently transfected with SmBit-tagged SLP76 and LgBit-tagged HPK1 forms; luminescence over time, with or without TCR stimulation (anti-CD3 and anti-IgG). The conditions noted are these: partners not purified.

B1: HPK1 kinase domain S171A (KD SA) (domain or fragment, UniProt Q92918 2-293, looked up)
chain: DVVDPDIFNRDPRDHYDLLQRLGGGTYGEVFKARDKVSGDLVALKMVKMEPDDDVSTLQKEILILKTCRHANIVAYHGSYLWLQKLWICMEFCGAGSLQDIYQVTGSLSELQISYVCREVLQGLAYLHSQKKIHRDIKGANILINDAGEVRLADFGISAQIGATLARRLAFIGTPYWMAPEVAAVALKGGYNELCDIWSLGITAIELAELQPPLFDVHPLRVLFLMTKSGYQPPRLKEKGKWSAAFHNFIKVTLTKSPKKRPSATKMLSHQLVSQPGLNRGLILDLLDKLKN
notes: source: recombinant, purified
In the case of B1, the binding result in experiment [1] is “binds”.

B2: HPK1 kinase domain T165E/S171E (KD TSEE WT) (domain or fragment, UniProt Q92918 2-293, looked up)
chain: DVVDPDIFNRDPRDHYDLLQRLGGGTYGEVFKARDKVSGDLVALKMVKMEPDDDVSTLQKEILILKTCRHANIVAYHGSYLWLQKLWICMEFCGAGSLQDIYQVTGSLSELQISYVCREVLQGLAYLHSQKKIHRDIKGANILINDAGEVRLADFGISAQIGAELARRLEFIGTPYWMAPEVAAVALKGGYNELCDIWSLGITAIELAELQPPLFDVHPLRVLFLMTKSGYQPPRLKEKGKWSAAFHNFIKVTLTKSPKKRPSATKMLSHQLVSQPGLNRGLILDLLDKLKN
notes: HPK1 (MAP4K1) kinase domain, residues D2-N293, with the phosphomimetic mutations T165E/S171E; also called WT KD; active TSEE form; source: recombinant, purified
For B2, the Kd in experiment [2] is 62.8 nM.

B3: HPK1 kinase domain T165E/S171E/L221K (KD TSEE L221K) (domain or fragment, UniProt Q92918 2-293, looked up)
chain: DVVDPDIFNRDPRDHYDLLQRLGGGTYGEVFKARDKVSGDLVALKMVKMEPDDDVSTLQKEILILKTCRHANIVAYHGSYLWLQKLWICMEFCGAGSLQDIYQVTGSLSELQISYVCREVLQGLAYLHSQKKIHRDIKGANILINDAGEVRLADFGISAQIGAELARRLEFIGTPYWMAPEVAAVALKGGYNELCDIWSLGITAIELAELQPPLFDVHPKRVLFLMTKSGYQPPRLKEKGKWSAAFHNFIKVTLTKSPKKRPSATKMLSHQLVSQPGLNRGLILDLLDKLKN
notes: HPK1 (MAP4K1) kinase domain, residues D2-N293, TSEE backbone with L221K; source: recombinant, purified
On to B3, for which the Kd in experiment [2] is 37.9 nM. As for B4, in experiment [3], the affinity, expressed as Ki, was 5990 nM.

B5: SLP76 with SmBit tag (natural protein, UniProt Q13094 1-533, looked up)
chain: MALRNVPFRSEVLGWDPDSLADYFKKLNYKDCEKAVKKYHIDGARFLNLTENDIQKFPKLRVPILSKLSQEINKNEERRSIFTRKPQVPRFPEETESHEEDNGGWSSFEEDDYESPNDDQDGEDDGDYESPNEEEEAPVEDDADYEPPPSNDEEALQNSILPAKPFPNSNSMYIDRPPSGKTPQQPPVPPQRPMAALPPPPAGRNHSPLPPPQTNHEEPSRSRNHKTAKLPAPSIDRSTKPPLDRSLAPFDREPFTLGKKPPFSDKPSIPAGRSLGEHLPKIQKPPLPPTTERHERSSPLPGKKPPVPKHGWGPDRRENDEDDVHQRPLPQPALLPMSSNTFPSRSTKPSPMNPLPSSHMPGAFSESNSSFPQSASLPPYFSQGPSNRPPIRAEGRNFPLPLPNKPRPPSPAEEENSLNEEWYVSYITRPEAEAALRKINQDGTFLVRDSSKKTTTNPYVLMVLYKDKVYNIQIRYQKESQVYLLGTGLRGKEDFLSVSDIIDYFRKMPLLLIDGKNRGSRYQCTLTHAAGYP
notes: SLP76 (SH2 domain-containing leukocyte protein of 76 kD); also called SH2 domain-containing leukocyte protein of 76 kD; source: HPK1-/- Jurkat cells, transiently transfected, in live cells
With B5, in the experiment with HPK1 ΔCHD with LgBit tag, the “level of interaction at baseline relative to full-length wild-type” value is ~0.33 fold of full-length wild-type.

(Values after publication PMC11066036, “HPK1 citron homology domain regulates phosphorylation of SLP76 and modulates kinase domain interaction dynamics” (Nature Communications, 2024).)
